Data published in US20170362317A1.

Biological target: IL6 receptor on human multiple myeloma U266 cells (human) (UniProt P08887)
Assay: cell-based or functional assay

Sequence of IL6 receptor on human multiple myeloma U266 cells (human) (P08887 20-468): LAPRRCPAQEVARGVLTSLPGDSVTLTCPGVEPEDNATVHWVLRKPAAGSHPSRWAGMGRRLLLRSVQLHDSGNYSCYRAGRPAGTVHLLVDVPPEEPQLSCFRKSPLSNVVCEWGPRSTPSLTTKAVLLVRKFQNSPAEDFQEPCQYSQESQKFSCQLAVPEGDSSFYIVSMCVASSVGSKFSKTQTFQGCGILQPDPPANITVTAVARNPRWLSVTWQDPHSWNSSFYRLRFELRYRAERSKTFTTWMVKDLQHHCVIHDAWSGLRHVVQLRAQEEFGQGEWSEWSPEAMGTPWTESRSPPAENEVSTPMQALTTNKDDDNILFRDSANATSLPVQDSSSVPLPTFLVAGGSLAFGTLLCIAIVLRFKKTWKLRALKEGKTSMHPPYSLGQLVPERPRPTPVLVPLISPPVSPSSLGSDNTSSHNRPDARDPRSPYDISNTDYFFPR

Q: Which results are given for “Actemra, an anti-IL6 receptor humanized antibody”?
A: inhibition percentage of control of STAT3 phosphorylation in U266 cells, antibody at 0.05 µg/ml: 0%; inhibition percentage of control of STAT3 phosphorylation in U266 cells, antibody at 0.5 µg/ml: 17%
